In US20210002621, “CTLA4 HOMING ENDONUCLEASE VARIANTS, COMPOSITIONS, AND METHODS OF USE” (bluebird bio, Inc., published 2021):

Legend:
[1] = molecular target: T1, CTLA4.B3.B6.D5 I-OnuI HE variant (Ophiostoma novo-ulmi); test: flow; sub-nanomolar affinity; yeast surface affinity titration, value only in figure; conditions: tags: yeast surface display
T1 chain: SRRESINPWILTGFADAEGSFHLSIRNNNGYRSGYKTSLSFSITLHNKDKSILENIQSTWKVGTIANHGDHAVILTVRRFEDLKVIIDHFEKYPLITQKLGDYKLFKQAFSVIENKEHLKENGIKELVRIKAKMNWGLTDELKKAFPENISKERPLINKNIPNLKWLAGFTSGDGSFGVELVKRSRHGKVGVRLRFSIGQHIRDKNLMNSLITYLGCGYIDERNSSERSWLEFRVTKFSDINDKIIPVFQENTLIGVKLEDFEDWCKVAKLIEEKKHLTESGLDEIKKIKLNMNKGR

[2] = molecular target: T2, CTLA4.B3.B6 I-OnuI HE variant (Ophiostoma novo-ulmi); test: cell_activity; chromosomal iRFP reporter in HEK 293T
T2 chain: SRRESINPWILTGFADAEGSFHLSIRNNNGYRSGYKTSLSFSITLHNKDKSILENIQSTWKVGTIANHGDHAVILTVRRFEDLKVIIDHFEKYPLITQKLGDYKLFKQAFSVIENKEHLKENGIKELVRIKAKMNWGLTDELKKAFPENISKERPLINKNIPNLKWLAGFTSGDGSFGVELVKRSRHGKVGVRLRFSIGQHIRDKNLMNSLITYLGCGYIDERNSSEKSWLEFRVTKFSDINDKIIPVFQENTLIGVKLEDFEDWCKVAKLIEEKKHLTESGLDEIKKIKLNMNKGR
Description: (§1) The activity of reprogrammed I-OnuI HEs that target exon 2 of the CTLA4 gene was measured using a chromosomally integrated fluorescent reporter system (Certo et. al., 2011). Fully reprogrammed I-OnuI HEs that bind and cleave the CTLA4 target sequence (SEQ ID NO: 13) were cloned into mammalian expression plasmids and then individually transfected into a HEK 293T […] cell line that contained the CTLA4 target sequence upstream of an out-of-frame gene encoding the fluorescent iRFP protein. Cleavage of the embedded target site by the HE and the accumulation of indels following DNA repair via the non-homologous end joining (NHEJ) pathway results in approximately one out of three repaired loci placing the fluorescent reporter gene back “in-frame”. The percentage of iRFP fluorescing HEK 293T cells is therefore used a readout of endonuclease activity at the chromosomally embedded target sequence. […] FIG. 3 (left panel).
(§2) A secondary I-OnuI variant library was generated by performing random mutagenesis on the CTLA4.B3 HE variant (SEQ ID NO: 6). Display-based flow sorting was performed under more stringent cleavage conditions to isolate variants with improved catalytic efficiency. […] FIG. 3 (middle panel). […] FIG. 3 (right panel).

[3] = molecular target: T1, CTLA4.B3.B6.D5 I-OnuI HE variant; test: as above
Description: as §1, §2

B1: CTLA4 exon 2 HE target site (dsDNA)
DNA 1: TGGAGATGCATACTCACACACA
DNA 2: TGTGTGTGAGTATGCATCTCCA
Kd [1]: < 1 nM | activity [2]: ~3 fold vs CTLA4.B3 | activity [3]: ~2 fold vs CTLA4.B3.B6
